The NTF2 design screens of Basanta et al. (2020)

Assay: protease stability score; higher = more stable; yeast display proteolysis, trypsin and chymotrypsin;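 further: relative to predicted unfolded state with 0 unfolded-like and 1 meaning tenfold more protease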

| Sequence | protease stability score |
| --- | --- |
| DEEEEHFKWLVKLIFDAYLTGDEEVLYERADPNVRIDFNGVELHGREEMQRHLEHLMKKFKGLRIELKHFHIQGDKMFFQTEYRYNGKTVEARLFFDVVNGRLKRIIIEHR | 1.48 |
| DEEEEHFRRLLERFLHFWRTGDEDDYHKLADPHARSEVIIGDFRIESHGRHALEIWLRYMGIDHIHLEDSDSQGNKVHVHMHVKVGDKEHHVIIILIVIDGRVHQLTISVRRT | 1.13 |
| DEEEEHLHSVAKRFLHSVETGDWKDLYELLDPHARFESVFNGRKVEHHGREEARKWFQEWVERFKNMRLHIEEVRTQGDKTHVDSRVHYGDKTINTIIHIVIVNGKVHHVEIRVK | 2.2 |
| DEEEEHLRKIMEEMTRANETGDFESWARNADPDYQLNVGDKRKHGREDWQEDLKRVDHLRLEVRIRRMRDVDGRIEVVGDLIIFIKVGEYEFESHSKVIIYIIKINGRWFIKSIEFL | 1 |
| DEEEEHLRKMTKLLWDQIHTGDEKDFLRLADPNARFEVEINGRKYEAHGREEIKHMLHDILELLGIDHVRLRDLELQGNKVILHSDTHVNGQDSKMRIEILIVNGRLKSFKIQTL | 0.995 |
| DEEEEHLRTMWEIWMHALRTGDEDFMTNLADPNVRVLILQGDKEEESHGRDELSRLLREIRIEEFTITDVRIQGDKSEADVHVVGQIDGRRTRTKIRISFIIFNGRLHSIRFEIH | 2.2 |
| DEEEEHMKHHLDLWIKLVQTGNEEHIARMIDPNARFDINGKEEHGRESFRKHLHEILKFFGVDRFHHEIKELRVIDGRVHSVTLWEINGQRLDTRIHAHKVNGVWLVHSLEIK | 1.14 |
| DEEEEHMRKMHEKFRKIRHTGNFEDYFRLLDPNARMHVNGQNMHGRDVVSKWFKHFVEEIRIEHFEIHDVKYIDGRSHEDGWLVGTIDGKHFDSRTEIILIVVDGKLKQFHIHIR | 0.489 |
| DEEEEHSKKMTDWWLHAVLTGDEEKLRQMIDPDVKLHINGKDHVGREEAVKSLRELLHRLGVNHIHVERMDVVGDKVILNFHLRVGDKEHETRVILHIYNGRIKEIRIHIH | 2.16 |
| DEEEEHSKLADEEMLHNLLTGNEEHINKMADPNVRIVIGDKELHGMERWREEMRFFKGARIEIKRSRIFTQGDKMHSEVDGTLNFNGRRVEILIVLVVRKVNGRWRIEMISYHIV | 1.57 |
| DEEEEHSKNFLRLWINLWLTGDWRNLLKLADPNAKVVINGVRIHGMEFLVRLLHEEMEQVKNMRIHIHDRRLQGDKSTEILILHFDGVFYETRFHIDIVNGKVRRFQEERE | 0.181 |
| DEEEEHWKHIAKEYLDNFRTGDWKNFMDNADPDYRFILSQGNKEDNHHGMHFFVEWILRFLKKFKNATFVLRHFSIQGNKIHMELDITVGDKRIDTKINIEIIDGVVHTIEIRLD | 0.821 |
| DEEEEIAHEMVRELVKVLETGDEEIWERLMDPNDRIHIGDKNLVGMDETRKWINEFMERIDHIRVRVRSIHPVDGRANLDTEITTHYNGRTTTYKVLLIVVKVNGRWVLESMHIK | 1.93 |
| DEEEEIARKYITLLVKSFLTGDERSIERLVDPHYRHDVGDKHVHGRERFTRHIYENLIRVKGIRVEVIVEHIRVINGRVEVDMQIHWKQGEFQILITSRMHVEKVDGRWLIREVEID | 0.976 |
| DEEEEIARRIFKIFVHNVLTGDEDSLRKMIDPNTRLHVDGQELHGREQALTFLHEMRIDHMELRELRVIDGRIISHIRVDGEINGRRRDIQTEIILYKVDGRWVIRQMRFQ | 2.39 |
| DEEEEIARRITELWLTYMMTGDEDALIHMADPNVKSILIINGRHVHYHGREYWTKMLRDLGFKHTRIRRVDLQGDYSRLDIEDDFNGVYTRSELRLKVVNGRFHTIEINIH | 1.08 |
| DEEEEIFRHLFKLFVDATETGDEHILKELLDPHTRIHVNGQDFHGRENAIHFWRHMRIDEIRLKEIEVQGDKIHITGHVRGQIDGQQVRTDFELIMVKIDGRWKIHSEIYH | 2 |
| DEEEEIIKEQLRILKKNLETGDWKAVLKMFDPNVREDVNGQTLIGRELWAQIFVEMGVDHIIERRVDIQGDKIRLYGQLDQGDKKHTTHIHARKVDGRWTFESVHVR | 1.08 |
| DEEEEILREFSEKWLHAFRTGDWRDIWHLMDPHVKVIIFVDGREKEIHGREEYATQLHERLEKVKGMRFRDKDMDHVNGRLVINVTVHQGDKHKEFRIIIDVVNGRVKRIEIHLH | 2.06 |
| DEEEEILRRFIEEWLYAELTGDFHVLHELFDPNVRIEINGVDKHGMHIVIKELLEFYRRVKNLRVEFELRDEKRFDGVVIIIGVRRISINGQTHEEETILVIVKVNGRWVMKEIWFN | 1.64 |
| DEEEEILRTFIRLMHEAWLTGDWKTFEEMLDPHARLHINGKDLHGREQMARRIEELGIKHVEDKDMETQGNKIHLKQIVYVNGRTFELRQFIIKVNGRWVIQHVEVITR | 1.38 |
| DEEEEIMRKIIEDLRHNTETGDEELMQDLMDPHARIDIDGQKLHGREYVRFLHDEFKGATWIWREVRLQGDKLDVHVEVRFDGRTLHVDIHYVIVNGRTKEIRVHWD | 1.28 |
| DEEEEINKKIVEDLFRALITGDEERQLKNMDPNTKIRTNVNGQDYIFHGRDLWVTLWNRFKNLRVEIESVHRQGNKIHFDTRLLFNGRIFQYHIVVISVNGQTKELKEHDE | 1.24 |
| DEEEEISRRIVKLLIELFETGDEEKWKELADPDARVDIDGVDSVGRKHAIHLLHEWKEQLGFKHHRIHSIHVYGEFIDVDGLLIVNGRKIRIHFHFIVVNGRLKEQRLHIE | 1.3 |
| DEEEEIVMKNARDLIHLTQTGDFEKQRHLLDPHVLVVLVQGDKRIEQHGWHFWKYLMKEIRIKHIRIDHVEAQGNKAQVRGTVDGNINGRDTHWEFELTFVFIDGRIRTIDIRID | 1.4 |

| Sequence | protease stability score |
| --- | --- |
| DEEEEKAKHVLELWSRAMLTGDEDEYKKLADPHTRLIVDGQTFHGWENFTKSHNQIKNIKIDDVHVENHHIQGNKMFVDLRFEMEFNGRILHKETHLFIEKIDGKWLIRTQEIH | 0.767 |
| DEEEEKDRILVEIWKRLVLTGDEEELLNLADPEARQTVHFNGKEVRNVGMERVIEHNREYLRLMGVDHITVDRSRVVNGRVENHHRVFVGEKEIRFEIEVTIINGRLRSVTIRVR | 0.379 |
| DEEEEKLKKWADDTIQLLRTGDEEDLYKMLDPHARTEVNGRELHGREEMFKVLKTIWDKVKGIKFLHRDHRLYNGRVEIHGELVIGDKIHKVHIIVLIINGKIKEVEIHIH | 1.39 |
| DEEEEKLRELIRIFIEDWKTGDFDSLAHLLDPNARLDIHINGVHLHYHGREKILEFLWRWFERFKNARVELKRIRIVNGRSEIDSETTFNGRSSDMEIDIVIINGRVRSERFKVG | 1.47 |
| DEEEEKLRFAVELFEETFRTGDEKLKEHLADPDVRVHYGDFEYHGRETLERWTRFVKGVKVELKSIDIINGVLDLDGTLHFNGRTFDTRYLALKINGRWILKRVIIH | 1.49 |
| DEEEEKSKRMLEIIIHAVMTGDFQHLLDNMDPHVKLDIDGVDLHGRESAEEFVKKVKNLTLHDWKLDHWHIQGDKVTMHVTIDGLYNGKKERTRVIIIALKINGQWHIKSMKID | 1.9 |
| DEEEELAHKATEHWLHLVRTGDEEKISSQADPNTKVEIRQGDKRIDSHGMEHFSELLRKLIEDYGVNHIHVNIVRLIDGRVHVNSLVHVGDKEIKIHIWADKVNGRWIHRNMHVHVG | 0.547 |
| DEEEELAIEVVQRWVEDFLTGDFRSFRELADPNTKTRINGQEMHGRHVYVEWFVKWLKQIDHHDFKLHDVKVINGQVHTDGEMRLEVNGREHRSRVELILVIINGRLHMVELRIK | 2.13 |
| DEEEELAIHFWRLFLHLIITGDWERLTELMDPNVRIDINGKEIHGRELASEHLRKLMEHARFRDHHLEDVKIYDGVVEMHGRIDGRFDGKDVDTRMIVYTVKVNGKWLLKRVVHL | 2.32 |
| DEEEELAKEMLERFNKSLHTGDEESIERLLDPDVRVIFNGKDLIGRETVADFLKEWRMSVHTFEIRRFHSQGEKMHLDGHTEIKIHFNGKTVHLNHRVEHHMHKVNGRWTIHSIQFL | 1.18 |
| DEEEELARKSLEVWLKSSQTGDENHLEHMFDPNARLNIDGVELIGREHAKIWAKELRIHDIYPRRLRIQGNKLFLDLESDEEYNGKRTHFRRHLVMLKVNGVWIIESMHVE | 1.43 |
| DEEEELARKYTEIYRHFMHTGDEDLNREFADPNTQILQGNKRFHGWKWYLEIVRRLGADHMEIHRVDVQGDKVHNDGRMIVNGKTLHFELIITKIDGRWVLREVRLG | 1.4 |
| DEEEELARRASRKLIELMLTGDEDSLEEMLDPNVKVQIGDKELHGRIAIEIMSRQFKNVRIEVKRLSVQGNYVDLDVRVNINGVWVEQRIQIEKVDGRWTLKENTIV | 2.23 |
| DEEEELIKHHLELHLEAVKTGDEEHLHRNMDPNVRLHVNGQDRHGREDVSTLLREIRLKDFKIHDVDIQGNKMRFDGFILGEINGREHNVHTTIYAEKVDGRWLIRHFEIR | 1.04 |
| DEEEELLKDLLRKWLEAMRTGDWEELERLLDPHVRIHIGDKDIHGRELFIELHERELKRIKNVKIVIDDKHIEFQGDKARVDGKLQEQVGDKEITHRVIIIMRVIDGKFESMEVRYV | 1.08 |
| DEEEELLRKLVEELHKALRTGNEHVLRHLIDPHVRIDIDGRELHGREQFVELWKRLVDELRIHDMKIRSIKTQGDFVHSSTELDLEYGDKKFRLTTELDVRSIDGRVKHVSIRYH | 1.53 |
| DEEEELLRRLIKMLLHLMRTGDEDETANLLDPNVRIEWNGRTFHGREEAKRWLFELLSRVDVVKDIKIHDYDRYGDFVLLDVRLHGEIDGVPTETIFIIIIRKINGRWMIHQIYLE | 1.42 |
| DEEEELLRRMLHLLYHFLKTGDEDTLSRLMDPNYLLIIGDKEHHGREEYRKVMKRADVLEIMHIHDVHFQGDKIHIDGHSRWRVGDKMHETRIEIIAVKFNGRWHFHSIIVR | 0.804 |
| DEEEELLTRTSELFSHNLHTGDEDSLIHLADPHTRIDVDGVQLHGMETWSEQFSRDMHEHGARSEVHYKRREVVGDKAKIHLVLTITYNGRTIIRNIELRMTKIDGVWILRHISYH | 1.26 |
| DEEEELMHRLVELFLKALITGDEETLSHLADPNVRLHIDGRHIHGWQFSVKEWLRESSEIRMELQIRHIHLIGDKVHVHGQLSIHQGNKHIHREVIYDFVIINGRLKSITVEIT | 1.99 |
| DEEEELMRSFLRLWFEAMITGDEHTLKELIDPDVRIEQGDKTHHGWEEFLRKFHKIKNMTIRHVELNHEHVQGDKIDLIITLHGHINGRHEELEVRLHARKVDGRWKMTRIHYQ | 2.66 |
| DEEEELNREALKEFHDDMKTGDERHILENLDPNTRIQFNGRDLHGRENAERFIRELIQKYGATVFNMKRVEVQGDWLHIDGELVIGDKKHRIHIIAVKINGRWTDTELRIK | 1.48 |
| DEEEELNRRLVELMIRWHETGDFDMIEKYMDPDAKLNINGQEIHGMEKITNLFLWRFEFFKGAQYRMNRVRVQGDKASIDGRLNVDGRTHSIEIRIVIINGRNHSIEIHDR | 1.41 |
| DEEEELREESEKFEHRAWETGDWKLLAELMDPHTRFITEDHDFHGRENMEKLLEDDLRRIKNATIRSIIIRRTHEINGRLLLIGIVDVEIDGKRVIRDVKYIKVKINGRWYITTMQVR | 0.796 |
| DEEEELSKIAIRIFLKTLETGDERTLSELMDPHARLVINGREYHGREEASKEWHKWVEHLRVRDIKISSVRINEHELILHEKFEVEVNGRNLKLDVLIIVVKVDGRWVLRTNTIN | 2.68 |
